This note sets out measurements from PMC11289419, “Modular RNA motifs for orthogonal phase separated compartments”.

The target in data set [1] is streptavidin (fluorescently labeled) (UniProt P22629 25-183). The data set is described as follows: fluorescence microscopy recruitment to RNA condensate; 25% aptamer strand; Multi-stranded: 40 mM HEPES, 100 mM KCl, 500 mM NaCl, 5 uM strands (1.25 uM aptamer strand), 70 C melt, 12 h hold (50 C), imaged after 20 C; co-transcriptional: T7 transcription buffer with 10 mM NaCl, 30 mM MgCl2, 2 mM spermidine, 37 C; pH not given. The following applies: protein: commercial; tags: fluorescent label; chain copies: 4; four-arm nanostar of 4 strands, 5' palindromic sticky end GCGC on S2-S4; aptamer 5' of the S1 sticky end.
streptavidin (fluorescently labeled), sequence (P22629 25-183): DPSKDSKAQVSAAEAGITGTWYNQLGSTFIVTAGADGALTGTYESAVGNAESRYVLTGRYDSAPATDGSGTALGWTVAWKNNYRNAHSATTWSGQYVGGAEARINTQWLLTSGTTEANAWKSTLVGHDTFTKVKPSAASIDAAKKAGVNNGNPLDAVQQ

The target of the next data set is T1, P22 N peptide (bacteriophage P22, UniProt P04891 14-30).
T1 chain: NAKTRRHERRRKLAIER
Described as above. Particulars: tags: 6-FAM (stated for single-stranded nanostar experiments); four-arm nanostar of 4 strands, 5' palindromic sticky end GAGCUC on S2-S4; boxB hairpin 5' of the S1 sticky end.

B1: 4m3 nanostar with streptavidin aptamer (structured_RNA)
RNA 1: GAUGCGGCCGCCGACCAGAAUCAUGCAAGUGCGUAAGAUAGUCGCGGGUCGGCGGCCGCAUCGCGCAUCCACGGCGUGUCGCAAGACGCCGACGCGUCG
RNA 2: GCGCAGUCGGGAUAUACCGGAAGCGACACGCCGUGGA
RNA 3: GCGCAAGUCCACAGUGGCGCAACCGGUAUAUCCCGAC
RNA 4: GCGCACGACGCGUCGGCGUCAAGCGCCACUGUGGACU
For the molecule B1, in data set [1], the binding result is “binds”.

B2: 4m5 nanostar with P22 boxB (structured_RNA)
RNA 1: GGUGCGCUGACAAAGCGCGCCGAGCUCAGAGUCUCUGGUCGCCAAGCUUAUCGGACACUG
RNA 2: GAGCUCAAGUAGGCACAUCAGCAAGGCGACCAGAGACUC
RNA 3: GAGCUCAUGCGUGGAGACAACGAAGCUGAUGUGCCUACU
RNA 4: GAGCUCACAGUGUCCGAUAAGCAACGUUGUCUCCACGCA
B2: in the data set with P22 N peptide, the binding result was “binds”.
